# Test system: Bacillus subtilis
# Assay: cleaved RNA product abundance (RNA/gDNA barcode ratio) relative to median wild-type variant (ratio to wild type); higher = more accumulation of the downstream cleavage product
# Details: experiment (reporter, strain, medium): exp 8a: truncated aprE reporter, strain BJT201 with 2% xylose (RNase J1 expressed); cleavage site: glnRA (positions -5 to +31 mutated)
# Method in brief: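 Cleaved product abundance was measured with barcoded reporter mRNAs (truncated aprE or tetM) carrying mutagenized RNase Y cleavage-site windows in the B. subtilis chromosome. Cultures in LB at 37°C grew from OD600 0.0003 to 0.3. Gel-selected cleaved RNA was reverse transcribed and barcode-sequenced with genomic DNA barcodes, and the RNA:gDNA barcode ratio per construct was scaled to the median construct bearing the unmutated site.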
row,Sequence,cleaved RNA product abundance
1,CGACATGTCCCGCTTCTTTCATTAATCCGTTAGCAACTGTTTTGCCATATACACTTACCTTTTAAGAGGAGGAAT,0.161
2,CGACATGTCCCGCTTCTTTCATTAATCCGTTAGCAACTGTTTTGCCATATACATATACCTTTTAAGAGGAGGAAT,0.198
3,CGACATGTCCCGCTTCTTTCATTAATCCGTTAGCAACTGTTTTGCCATATACATTTAACTTTTAAGAGGAGGAAT,0.406
4,CGACATGTCCCGCTTCTTTCATTAATCCGTTAGCAACTGTTTTGCCATATACATTTACATTTTAAGAGGAGGAAT,0.355
5,CGACATGTCCCGCTTCTTTCATTAATCCGTTAGCAACTGTTTTGCCATATACATTTACCGTTTAAGAGGAGGAAT,0.539
6,CGACATGTCCCGCTTCTTTCATTAATCCGTTAGCAACTGTTTTGCCATATACATTTACCTTTTAAGAGGAGGAAT,0.205
7,CGACATGTCCCGCTTCTTTCATTAATCCGTTAGCAACTGTTTTGCCATATACATTTACGTTTTAAGAGGAGGAAT,0.6
8,CGACATGTCCCGCTTCTTTCATTAATCCGTTAGCAACTGTTTTGCCATATACGTTTACCTTTTAAGAGGAGGAAT,0.0858
9,CGACATGTCCCGCTTCTTTCATTAATCCGTTAGCAACTGTTTTGCGATATACATTAACCTTTTAAGAGGAGGAAT,0.781
10,CGACATGTCCCGCTTCTTTCATTAATCCGTTAGCAACTGTTTTGCGATATACATTTACCATTTAAGAGGAGGAAT,0.637
11,CGACATGTCCCGCTTCTTTCATTAATCCGTTAGCAACTGTTTTGCGATATACATTTACCTTTTAAGAGGAGGAAT,0.406
12,CGACATGTCCCGCTTCTTTCATTAATCCGTTAGCAACTGTTTTGCGATATACATTTACGTTTTAAGAGGAGGAAT,0.36
13,CGACATGTCCCGCTTCTTTCATTAATCCGTTAGCAACTGTTTTGCGATATACATTTACTTTTTAAGAGGAGGAAT,0.55
14,CGACATGTCCCGCTTCTTTCATTAATCCGTTAGCAACTGTTTTGCGATATACATTTATCTTTTAAGAGGAGGAAT,0.552
15,CGACATGTCCCGCTTCTTTCATTAATCCGTTAGCAACTGTTTTGCTAAAGACATTTACCTTTTAAGAGGAGGAAT,0.0969
16,CGACATGTCCCGCTTCTTTCATTAATCCGTTAGCAACTGTTTTGCTAAATACATTTAACTTTTAAGAGGAGGAAT,0.445
17,CGACATGTCCCGCTTCTTTCATTAATCCGTTAGCAACTGTTTTGCTAAATACATTTACCTTTTAAGAGGAGGAAT,0.524
18,CGACATGTCCCGCTTCTTTCATTAATCCGTTAGCAACTGTTTTGCTAAATACATTTATCTTTTAAGAGGAGGAAT,0.814
19,CGACATGTCCCGCTTCTTTCATTAATCCGTTAGCAACTGTTTTGCTAAATACATTTGCCTTTTAAGAGGAGGAAT,0.22
20,CGACATGTCCCGCTTCTTTCATTAATCCGTTAGCAACTGTTTTGCTAAATACATTTTCCTTTTAAGAGGAGGAAT,0.232
21,CGACATGTCCCGCTTCTTTCATTAATCCGTTAGCAACTGTTTTGCTAAATACCTTTACCTTTTAAGAGGAGGAAT,0.165
22,CGACATGTCCCGCTTCTTTCATTAATCCGTTAGCAACTGTTTTGCTAAATAGATTTACCTTTTAAGAGGAGGAAT,0.884

row,Sequence,cleaved RNA product abundance
1,CGACATGTCCCGCTTCTTTCATTAATCCGTTAGCAACTGTTTTGCTAAATTCATTTACCTTTTAAGAGGAGGAAT,0.133
2,CGACATGTCCCGCTTCTTTCATTAATCCGTTAGCAACTGTTTTGCTACATACAATTACCTTTTAAGAGGAGGAAT,0.348
3,CGACATGTCCCGCTTCTTTCATTAATCCGTTAGCAACTGTTTTGCTACATACACTTACCTTTTAAGAGGAGGAAT,0.213
4,CGACATGTCCCGCTTCTTTCATTAATCCGTTAGCAACTGTTTTGCTACATACATTAACCTTTTAAGAGGAGGAAT,0.434
5,CGACATGTCCCGCTTCTTTCATTAATCCGTTAGCAACTGTTTTGCTACATACATTTACCTTTTAAGAGGAGGAAT,0.368
6,CGACATGTCCCGCTTCTTTCATTAATCCGTTAGCAACTGTTTTGCTAGATACATATACCTTTTAAGAGGAGGAAT,0.781
7,CGACATGTCCCGCTTCTTTCATTAATCCGTTAGCAACTGTTTTGCTAGATACATTTACATTTTAAGAGGAGGAAT,0.424
8,CGACATGTCCCGCTTCTTTCATTAATCCGTTAGCAACTGTTTTGCTAGATACATTTACCTTTTAAGAGGAGGAAT,0.43
9,CGACATGTCCCGCTTCTTTCATTAATCCGTTAGCAACTGTTTTGCTAGATACATTTACTTTTTAAGAGGAGGAAT,0.636
10,CGACATGTCCCGCTTCTTTCATTAATCCGTTAGCAACTGTTTTGCTATAAAAATTTACCTTTTAAGAGGAGGAAT,0.405
11,CGACATGTCCCGCTTCTTTCATTAATCCGTTAGCAACTGTTTTGCTATAAACATTTAACTTTTAAGAGGAGGAAT,0.912
12,CGACATGTCCCGCTTCTTTCATTAATCCGTTAGCAACTGTTTTGCTATAAACATTTACCTTTTAAGAGGAGGAAT,0.603
13,CGACATGTCCCGCTTCTTTCATTAATCCGTTAGCAACTGTTTTGCTATAAACATTTACGTTTTAAGAGGAGGAAT,1.32
14,CGACATGTCCCGCTTCTTTCATTAATCCGTTAGCAACTGTTTTGCTATAAACATTTATCTTTTAAGAGGAGGAAT,0.717
15,CGACATGTCCCGCTTCTTTCATTAATCCGTTAGCAACTGTTTTGCTATAAACCTTTACCTTTTAAGAGGAGGAAT,0.163
16,CGACATGTCCCGCTTCTTTCATTAATCCGTTAGCAACTGTTTTGCTATAAACTTTTACCTTTTAAGAGGAGGAAT,0.318
17,CGACATGTCCCGCTTCTTTCATTAATCCGTTAGCAACTGTTTTGCTATAAATATTTACCTTTTAAGAGGAGGAAT,1.49
18,CGACATGTCCCGCTTCTTTCATTAATCCGTTAGCAACTGTTTTGCTATACACATTTACATTTTAAGAGGAGGAAT,0.372
19,CGACATGTCCCGCTTCTTTCATTAATCCGTTAGCAACTGTTTTGCTATACACATTTACCTTTTAAGAGGAGGAAT,0.459
20,CGACATGTCCCGCTTCTTTCATTAATCCGTTAGCAACTGTTTTGCTATACACATTTACTTTTTAAGAGGAGGAAT,0.146
21,CGACATGTCCCGCTTCTTTCATTAATCCGTTAGCAACTGTTTTGCTATAGACATTCACCTTTTAAGAGGAGGAAT,0.435
22,CGACATGTCCCGCTTCTTTCATTAATCCGTTAGCAACTGTTTTGCTATAGACATTTAACTTTTAAGAGGAGGAAT,1.15

row,Sequence,cleaved RNA product abundance
1,CGACATGTCCCGCTTCTTTCATTAATCCGTTAGCAACTGTTTTGCTATAGACATTTACCTTTTAAGAGGAGGAAT,0.624
2,CGACATGTCCCGCTTCTTTCATTAATCCGTTAGCAACTGTTTTGCTATATAAAATTACCTTTTAAGAGGAGGAAT,0.606
3,CGACATGTCCCGCTTCTTTCATTAATCCGTTAGCAACTGTTTTGCTATATAAATATACCTTTTAAGAGGAGGAAT,1.3
4,CGACATGTCCCGCTTCTTTCATTAATCCGTTAGCAACTGTTTTGCTATATAAATCTACCTTTTAAGAGGAGGAAT,1.49
5,CGACATGTCCCGCTTCTTTCATTAATCCGTTAGCAACTGTTTTGCTATATAAATGTACCTTTTAAGAGGAGGAAT,1.78
6,CGACATGTCCCGCTTCTTTCATTAATCCGTTAGCAACTGTTTTGCTATATAAATTAACCTTTTAAGAGGAGGAAT,1.01
7,CGACATGTCCCGCTTCTTTCATTAATCCGTTAGCAACTGTTTTGCTATATAAATTTACATTTTAAGAGGAGGAAT,1.83
8,CGACATGTCCCGCTTCTTTCATTAATCCGTTAGCAACTGTTTTGCTATATAAATTTACCTTTTAAGAGGAGGAAT,0.938
9,CGACATGTCCCGCTTCTTTCATTAATCCGTTAGCAACTGTTTTGCTATATAAATTTACGTTTTAAGAGGAGGAAT,1.02
10,CGACATGTCCCGCTTCTTTCATTAATCCGTTAGCAACTGTTTTGCTATATAAATTTATCTTTTAAGAGGAGGAAT,2.04
11,CGACATGTCCCGCTTCTTTCATTAATCCGTTAGCAACTGTTTTGCTATATACAACTACCTTTTAAGAGGAGGAAT,1.12
12,CGACATGTCCCGCTTCTTTCATTAATCCGTTAGCAACTGTTTTGCTATATACAATAACCTTTTAAGAGGAGGAAT,0.855
13,CGACATGTCCCGCTTCTTTCATTAATCCGTTAGCAACTGTTTTGCTATATACAATTAACTTTTAAGAGGAGGAAT,2.58
14,CGACATGTCCCGCTTCTTTCATTAATCCGTTAGCAACTGTTTTGCTATATACAATTACCTTTTAAGAGGAGGAAT,0.983
15,CGACATGTCCCGCTTCTTTCATTAATCCGTTAGCAACTGTTTTGCTATATACAATTATCTTTTAAGAGGAGGAAT,0.873
16,CGACATGTCCCGCTTCTTTCATTAATCCGTTAGCAACTGTTTTGCTATATACAATTGCCTTTTAAGAGGAGGAAT,0.532
17,CGACATGTCCCGCTTCTTTCATTAATCCGTTAGCAACTGTTTTGCTATATACAATTTACCTTTTAAGAGGAGGAA,1.39
18,CGACATGTCCCGCTTCTTTCATTAATCCGTTAGCAACTGTTTTGCTATATACACGTACCTTTTAAGAGGAGGAAT,0.835
19,CGACATGTCCCGCTTCTTTCATTAATCCGTTAGCAACTGTTTTGCTATATACACTTAACTTTTAAGAGGAGGAAT,0.785
20,CGACATGTCCCGCTTCTTTCATTAATCCGTTAGCAACTGTTTTGCTATATACACTTACCTTTTAAGAGGAGGAAT,0.964
21,CGACATGTCCCGCTTCTTTCATTAATCCGTTAGCAACTGTTTTGCTATATACACTTATCTTTTAAGAGGAGGAAT,0.672
22,CGACATGTCCCGCTTCTTTCATTAATCCGTTAGCAACTGTTTTGCTATATACAGTTACCTTTTAAGAGGAGGAAT,0.464

# — the supplement of paper PMC11780869
